# Assay results reported in publication PMC8809534, “Gating choreography and mechanism of the human proton-activated chloride channel ASOR” (Science Advances, 2022).
# B1: human ASOR (TMEM206) proton-activated chloride channel (natural protein)
# chain: not shown
# notes: full-length human ASOR (TMEM206), UniProt Q9H813; codon-optimised synthetic cDNA; GFP tag removed with PreScission protease; residues left by the cleavage site are not described; also called PAC; acid-sensitive outwardly rectifying channel; not shown: GFP, C-terminal, cleaved
# Target: the molecule itself
# Experiment: cryo-EM structure; single-particle cryo-EM of purified ASOR at pH 7.5 (digitonin, GDN or saposin nanodiscs) and at pH 4.5 (GDN or saposin nanodiscs; sodium citrate added); 5 mM Hepes, 150 mM NaCl; C3 symmetry; resting, activated and desensitized conformations
protein,measurement,value
B1,stoichiometry N,3
